How the values were obtained:
iMSCs [1] = test: quantitative real-time PCR of immunomodulatory marker genes in iMSCs treated with immune stimulators; type: cell-based, human; settings: iMSCs 100k cells/sample; dsRNA 500 ng/sample or IFNr 10 ng/ml; 24 hours; particularly IDO1, TLR3 and HGF; control genes CD73, CD90, CD105 not upregulated; FIG. 5
Description: In a first set of studies, iMSCs were treated with immune stimulators, either double-strand RNA (dsRNA) or recombinant human interferon gamma (IFNr)(R&D Systems, Cat. #35-IF-100). iMSCs (100k cells/sample) were cultured with dsRNA (500 ng/sample) or IFNr (10 ng/ml) for 24 hours. […] Immunostimulatory marker genes examined were: RIG1, TLR3, COX2, IDO1, HGF and TGF-beta. Control genes (for MSC surface markers) examined were: CD73, CD90 and CD105.

iMSCs [2] = test: IL-10 secretion by iMSCs after IFNr treatment (ELISA); type: cell-based, human; settings: IFNr 20 ng/mL or 50 ng/mL for three days; media supernatant; FIG. 7
Description: In a third set of experiments, the production of the anti-inflammatory factor IL-10 by the iMSCs was examined after treatment with IFNr. iMSCs (50k cells/well of a 24 well plate; approx. 25,000 cells/cm^2) were treated with low concentration (20 ng/mL) or high concentration (50 ng/mL) IFNr for three days to stimulate secretion of IL-10. The control group was the same culture conditions but without IFNr treatment. After three days, media supernatant was collected and the level of IL-10 secretion was quantified by standard ELISA analysis (human IL-10 Quantikine ELISA kit, R&D Systems, Cat. #D1000B).

B1: IFNr: recombinant human interferon gamma (R&D Systems), immune stimulator (protein, UniProt P01579 24-161, looked up)
Interferon gamma: QDPYVKEAENLKKYFNAGHSDVADNGTLFLGILKNWKEESDRKIMQSQIVSFYFKLFKNFKDDQSIQKSVETIKEDMNVKFFNSNKKKRDDFEKLTNYSVTDLNVQRKAIHELIQVMAELSPAAKTGKRKRSQMLFRG
expression of genes associated with immunostimulation (RIG1, TLR3, COX2, IDO1, HGF, TGF-beta) (iMSCs [1]): increased expression | secretion of IL-10 by iMSCs (iMSCs [2]): dose-dependent

Source: patent US20230257714A1, “METHODS AND COMPOSITIONS FOR GENERATING HUMAN INDUCED MESENCHYMAL STEM CELLS” (SmartCella Solutions AB, priority 2022, published 2023)
